Substitutions are numbered along the chain they refer to.
T1: Ax1 protein, extracellular domain (human, UniProt P30530 26-451)
T1 construct: extracellular domain; also called Axl; Ark
T1 sequence (looked up): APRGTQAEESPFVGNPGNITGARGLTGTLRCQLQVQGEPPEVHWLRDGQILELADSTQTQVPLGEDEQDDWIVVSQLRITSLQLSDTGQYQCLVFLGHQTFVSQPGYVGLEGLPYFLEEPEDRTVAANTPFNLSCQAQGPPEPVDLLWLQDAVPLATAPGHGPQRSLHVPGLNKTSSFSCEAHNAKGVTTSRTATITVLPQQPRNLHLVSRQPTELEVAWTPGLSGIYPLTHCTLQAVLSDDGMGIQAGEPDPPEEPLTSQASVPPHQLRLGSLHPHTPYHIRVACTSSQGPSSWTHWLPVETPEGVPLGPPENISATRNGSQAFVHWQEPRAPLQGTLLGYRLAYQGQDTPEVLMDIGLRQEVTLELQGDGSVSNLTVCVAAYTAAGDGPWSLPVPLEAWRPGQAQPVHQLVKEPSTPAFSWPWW

B1: LC-P095T (antibody, V domains shown)
VH: EVQLVQSGAEVKKPGATVKISCKVSGYSFTGHTMNWIRQPPGKGLEWIGLIKPSNGGTSYNQKFKGRVTISADKSISTAYLQWSSLKASDTAMYYCAHGHYESYFAMDYWGQGTLVTVSS
VL: DIQMTQSPSSLSASVGDRVTITCKASQDVSSAVAWYQQKPGQAPRLLIYWASTRHTGVPSRFSGSGSGTEFTLTISSLQPDDFATYYCQEHFSTTLTFGQGTKVEIK
notes: CPE single point mutant
B2: LC-P095V (antibody, V domains shown)
VH: B1 VH
VL: B1 VL with T95V
notes: CPE single point mutant
B3: LC-P095W (antibody, V domains shown)
VH: B1 VH
VL: B1 VL with T95W
notes: CPE single point mutant
B4: LC-T097I (antibody, V domains shown)
VH: B1 VH
VL: B1 VL with T95P, T97I
notes: CPE single point mutant
B5: LC-V029D (antibody, V domains shown)
VH: B1 VH
VL: B1 VL with V29D, T95P
notes: CPE single point mutant
B6: LC-V029G (antibody, V domains shown)
VH: B1 VH
VL: B1 VL with V29G, T95P
notes: CPE single point mutant
B7: LC-V029N (antibody, V domains shown)
VH: B1 VH
VL: B1 VL with V29N, T95P
notes: CPE single point mutant
B8: LC-V029W (antibody, V domains shown)
VH: B1 VH
VL: B1 VL with V29W, T95P
notes: CPE single point mutant
B9: LC-W050F (antibody, V domains shown)
VH: B1 VH
VL: B1 VL with W50F, T95P
notes: CPE single point mutant

The binders below were run against T1, Ax1 protein, extracellular domain (assay: ELISA, mutant diluted 1:3).
Text: (§1) The DNA encoding the wild-type antibody was evolved to generate a mutant antibody library using Comprehensive Positional Evolution (CPE), which each position in the template antibody is randomized one at a time. Each mutant antibody in the library has only one single point mutation. The mutant antibodies in the library were generated by simultaneously screening for selective binding affinity to Ax1 at pH 6.0 over pH 7.4 by ELISA. Two mutant antibody dilutions were used: 1:3 and 1:9 dilutions.

Question: Which “Affinity ELISA CPE mutant ratio (1:3, pH 6.0/7.4)” value does the source give for B1 here?
Answer: The value was 2.5.

Question: Which “Affinity ELISA CPE mutant ratio (1:3, pH 6.0/7.4)” value does the source give for B2 here?
Answer: Its value is 1.87.

Question: B3 was tested. Which “Affinity ELISA CPE mutant ratio (1:3, pH 6.0/7.4)” value did it give?
Answer: Its value is 2.15.

Question: For B4, which “Affinity ELISA CPE mutant ratio (1:3, pH 6.0/7.4)” value is on record?
Answer: The value was 3.09.

Question: Which “Affinity ELISA CPE mutant ratio (1:3, pH 6.0/7.4)” value does the source give for B5 here?
Answer: The value was 2.88.

Question: How did the “Affinity ELISA CPE mutant ratio (1:3, pH 6.0/7.4)” value turn out when B6 was run?
Answer: Its value is 1.94.

Question: With B7 as the binder, how does the “Affinity ELISA CPE mutant ratio (1:3, pH 6.0/7.4)” value read?
Answer: Its value is 2.6.

Question: Which “Affinity ELISA CPE mutant ratio (1:3, pH 6.0/7.4)” value does the source give for B8 here?
Answer: Its value is 2.31.

Question: For B9, which “Affinity ELISA CPE mutant ratio (1:3, pH 6.0/7.4)” value is on record?
Answer: Its value is 2.25.

The binders below were run against T1, Ax1 protein, extracellular domain (assay: ELISA, mutant diluted 1:9).
Text: as §1

Question: With B1 as the binder, how does the “Affinity ELISA CPE mutant ratio (1:9, pH 6.0/7.4)” value read?
Answer: Its value is 2.09.

Question: For B2, which “Affinity ELISA CPE mutant ratio (1:9, pH 6.0/7.4)” value is on record?
Answer: Its value is 2.13.

Question: B3 was tested. Which “Affinity ELISA CPE mutant ratio (1:9, pH 6.0/7.4)” value did it give?
Answer: Its value is 2.26.

Question: B4 was tested. Which “Affinity ELISA CPE mutant ratio (1:9, pH 6.0/7.4)” value did it give?
Answer: The value was 4.05.

Question: Which “Affinity ELISA CPE mutant ratio (1:9, pH 6.0/7.4)” value does the source give for B5 here?
Answer: Its value is 2.68.

Question: With B6 as the binder, how does the “Affinity ELISA CPE mutant ratio (1:9, pH 6.0/7.4)” value read?
Answer: The value was 1.8.

Question: Which “Affinity ELISA CPE mutant ratio (1:9, pH 6.0/7.4)” value does the source give for B7 here?
Answer: Its value is 2.65.

Question: For B8, which “Affinity ELISA CPE mutant ratio (1:9, pH 6.0/7.4)” value is on record?
Answer: The value was 2.35.

Question: B9 was tested. Which “Affinity ELISA CPE mutant ratio (1:9, pH 6.0/7.4)” value did it give?
Answer: Its value is 3.5.
